Legend:
[1] = system: NIH3T3-AXL cl.7 fibroblasts; test: Boyden chamber/transwell migration assay; format: cell-based; conditions: 10 μg/ml antibody, with or without 400 ng/ml Gas6, 7 h
Protocol: Transmigration experiments were performed in order to investigate whether the antibodies of the invention block cell migration. For this purpose, in the morning of day 1, NIH3T3-AXL cl.7 cells were seeded on 15 cm dished in normal growth medium, which in the evening was replaced by serum-reduced medium (DMEM, 0.5% FCS) in order to starve cells for 36 h. The next day, a FluoroBlock 96 well plate (Becton Dickinson #351164, 8 μm pore size) was coated with 10 μg collagen 1/ml 0.1 M acetic acid over night at 37° C. On day 3, the serum-reduced medium (DMEM, 0.5% FCS) was replaced by serum-free medium (DMEM, 0% FCS, 0.1% BSA) for another 4 h. Cells were harvested with 10 mM EDTA in PBS and pre-incubated with rat anti-AXL antibodies 4A6, 11B7 or 2A1 at a cell density of 4×10^5 cells/ml and an antibody concentration of 10 μg/ml for 45 min. 50 μl cell suspension (20,000 cells) per well were then placed in the top chamber of the FluoroBlock 96-well plate, 225 μl medium (DMEM, 0% FCS, 0.1% BSA) with or without 400 ng/ml mouse Gas6 (R&D Systems) were used per well in the bottom chamber. Cells were left to migrate for 7 h at 37° C. and stained afterwards with 4.2 μM calcein-AM (Molecular Probes #C3099) in PBS, 1 mM CaCl2, 1 mM MgCl2 for 1 h at 37° C. Using a Victor plate reader (Perkin Elmer), the fluorescence of each well was measured at a wavelength of 530 nm.

AXL = target: T1, AXL (Homo sapiens, UniProt P30530); test: Axl phosphorylation ELISA, rat versus chimeric antibody; format: cell-based; set-up: endogenous in cells; host or cells: CaSki cervical cancer cells
T1 sequence (P30530 26-894): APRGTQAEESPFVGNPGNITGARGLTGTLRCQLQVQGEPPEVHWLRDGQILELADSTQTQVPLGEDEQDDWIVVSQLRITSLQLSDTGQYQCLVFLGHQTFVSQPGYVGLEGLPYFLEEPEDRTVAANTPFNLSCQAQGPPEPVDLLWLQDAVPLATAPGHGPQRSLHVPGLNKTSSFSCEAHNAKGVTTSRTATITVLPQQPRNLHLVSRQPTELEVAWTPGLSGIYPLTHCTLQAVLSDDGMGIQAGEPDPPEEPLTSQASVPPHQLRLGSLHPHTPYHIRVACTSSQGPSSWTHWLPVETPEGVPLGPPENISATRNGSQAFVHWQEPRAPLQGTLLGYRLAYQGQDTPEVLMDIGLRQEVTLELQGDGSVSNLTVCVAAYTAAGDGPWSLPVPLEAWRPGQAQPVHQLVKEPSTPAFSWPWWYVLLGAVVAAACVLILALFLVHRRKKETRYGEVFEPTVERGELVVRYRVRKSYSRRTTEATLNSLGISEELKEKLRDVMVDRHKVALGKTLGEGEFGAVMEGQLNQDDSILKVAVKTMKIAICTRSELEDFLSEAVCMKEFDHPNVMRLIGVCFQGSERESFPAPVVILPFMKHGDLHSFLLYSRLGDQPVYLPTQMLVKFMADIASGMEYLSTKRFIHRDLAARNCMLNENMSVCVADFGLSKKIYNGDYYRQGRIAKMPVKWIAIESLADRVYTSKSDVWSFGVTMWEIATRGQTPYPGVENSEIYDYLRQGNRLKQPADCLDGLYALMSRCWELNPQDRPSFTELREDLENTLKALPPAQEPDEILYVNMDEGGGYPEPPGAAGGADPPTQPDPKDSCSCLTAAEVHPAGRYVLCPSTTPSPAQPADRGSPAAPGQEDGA
Protocol: In order to investigate whether the rat anti-Axl antibodies of the invention and the corresponding chimeric anti-Axl antibodies of the invention were able to inhibit ligand Gas6-mediated Axl activation in vitro to similar extent, ELISA experiments on CaSki cervical cancer cells were performed. Gas6-mediated Axl activation was thereby detected by increased receptor tyrosine phosphorylation. In brief, on day 1, 3×10^4 cells per well were seeded in normal growth medium in flat-bottom 96 well plates. The next day, growth medium was replaced by serum-free medium to starve cells over night for 24 h. Also over night, black Maxi-Sorp 96 well plates (Nunc) were coated with mouse anti-phospho-tyrosine antibody 4G10 at 2 μg/ml PBS and 4° C. On day 3, the 4G10 antibody solution was removed and Maxi-Sorp wells were blocked with PBS, 0.5% BSA for at lest 4 h at room temperature. In parallel, cells were pre-incubated with 50 ng/ml, 100 ng/ml, 300 ng/ml, 750 ng/ml, 1 μg/ml, and 10 μg/ml of rat anti-Axl antibody 11B7 or chimeric anti-Axl antibody ch11B7 for 1 h at 37° C. and subsequently treated with or without 400 ng/ml Gas6 (R&D Systems) for 10 min at 37° C. […] Using a Victor plate reader (Perkin Elmer), the fluorescence of each well was collected at an excitation wavelength of 430 nm and an emission wavelength of 580 nm.

B1: 11B7: antagonistic rat anti-AXL monoclonal antibody, rat IgG1 (antibody, V domains shown)
VL: DIQMTQAPSSLPASLGDRVTITCRASQDIGNYLRWFQQKPGKSPRLMISGATNLAAGVPSRFSGSRSGSDYSLTISSLESEDMADYYCLQSKESPWTFGGGTKLELK
VH: EVQLQESGPGLVKPSQSLSLTCSVTGYSITSNYWGWIRKFPGDKMEWMGYITYSGSTSYNPSLKSRISITRDTSKNQFFLQLNSVTSEDTATYYCAITTFYYWGQGVMVTVSS
For B1, the directed cell migration [1] was “reduced both basal and Gas6-induced migration”, the “ligand-induced Axl activation (relative Axl phosphorylation), concentration-dependent” value (AXL; 50 ng/ml to 10 μg/ml antibody, 400 ng/ml Gas6, CaSki cervical cancer cells) was “able to block ligand-induced activation of the receptor tyrosine kinase Axl to similar extent” and the “ligand-induced Axl activation in melanoma cell line C-8161” value (AXL; same experimental settings, C-8161) was “Comparable effects”.

Reference: patent US8933202B2, “AXL antibodies” (U3 Pharma GmbH, priority 2007, dated 2015)
